Key:
[1] = target: CAP255 gp140 SpyTag (HIV-1 subtype C (patient CAP255)); test: SEC + native gel or EMSA; lectin-purified CAP255 gp140 SpyTag on HiLoad 16/600 Superdex 200 pg; fractions on Blue NativePAGE 3-12% Bis-Tris gels, Coomassie
[2] = target: SpyCatcher mi3 nanoparticle; test: cryo-EM structure; CAP255 gp140 SpyTag-SpyCatcher mi3 NPs; whole NP 9.4 Å (icosahedral), masked mi3 5.4 Å, single Env trimer-SpyCatcher 17.7 Å without symmetry
[3] = target: SpyCatcher mi3 nanoparticle; test: negative stain electron microscopy; NPs alone or after coupling, on glow-discharged carbon-coated grids, 2% uranyl acetate; 2D classification and ~20 Å 3D maps with icosahedral symmetry imposed
[4] = target: SpyCatcher mi3 nanoparticle; test: covalent SpyTag-SpyCatcher coupling, read by SDS-PAGE; MBP SpyTag mixed with SpyCatcher mi3 NPs at 1:1 and 1:2 molar ratios, 4 °C overnight, TBS (25 mM Tris-HCl, 300 mM NaCl, pH 8.5); Coomassie-stained SDS-PAGE, band intensities quantified

Substance | stoichiometry N [1] | stoichiometry N (Env trimers per NP) [2] | stoichiometry N (Env trimers per NP) [3] | coupling efficiency [4] [%] | stoichiometry N (MBP monomers per NP) [4]
CAP255 gp140 SpyTag (domain or fragment) | 3 | 12 | 12 |  | 
MBP SpyTag |  |  |  | 100 | 60

From paper PMC11436023
